In data set [1] the target is T1, CprB (Streptomyces coelicolor A3(2), UniProt Q7AKF2 1-215).
T1 sequence: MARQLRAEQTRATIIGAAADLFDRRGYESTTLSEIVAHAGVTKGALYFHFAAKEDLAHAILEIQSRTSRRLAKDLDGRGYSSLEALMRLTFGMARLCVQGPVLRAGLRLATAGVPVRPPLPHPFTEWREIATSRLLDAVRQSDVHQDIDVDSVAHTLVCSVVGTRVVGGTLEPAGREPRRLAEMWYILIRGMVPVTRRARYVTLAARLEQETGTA
Description: EMSA; EMSA: 10 mM Tris-HCl pH 7.8, 50 mM KCl, 1 mM EDTA, 1 mM DTT, 5% glycerol, hemoglobin, poly(dI-dC), 20 C, ~1 nM DNA; ITC: 50 mM phosphate pH 7, 150 mM NaCl, 25 C. Conditions: protein: recombinant, chain copies: 4, blunt. Background: A gel shift assay detects complexes by their altered migration in electrophoresis.

Data set [2] addresses T1, CprB. Description: EMSA; about five-fold weaker than own upstream sequence; EMSA: 10 mM Tris-HCl pH 7.8, 50 mM KCl, 1 mM EDTA, 1 mM DTT, 5% glycerol, hemoglobin, poly(dI-dC), 20 C, ~1 nM DNA; ITC: 50 mM phosphate pH 7, 150 mM NaCl, 25 C. Conditions: protein: recombinant; chain copies: 4; label: 5'-32P; blunt, self-complementary.
Data set [3] deals with T1, CprB. Briefly: ITC; two-site model, Kd1, n = 0.26, 25 C; EMSA: 10 mM Tris-HCl pH 7.8, 50 mM KCl, 1 mM EDTA, 1 mM DTT, 5% glycerol, hemoglobin, poly(dI-dC), 20 C, ~1 nM DNA; ITC: 50 mM phosphate pH 7, 150 mM NaCl, 25 C. Conditions: protein: recombinant; chain copies: 4; label: 5'-32P (EMSA); none (ITC); blunt. In general terms: Isothermal titration calorimetry measures the heat released or taken up as one component is titrated into another.

In the next data set the target is T2, CprB K43A (Streptomyces coelicolor A3(2), UniProt Q7AKF2 1-215, K43A).
T2 sequence: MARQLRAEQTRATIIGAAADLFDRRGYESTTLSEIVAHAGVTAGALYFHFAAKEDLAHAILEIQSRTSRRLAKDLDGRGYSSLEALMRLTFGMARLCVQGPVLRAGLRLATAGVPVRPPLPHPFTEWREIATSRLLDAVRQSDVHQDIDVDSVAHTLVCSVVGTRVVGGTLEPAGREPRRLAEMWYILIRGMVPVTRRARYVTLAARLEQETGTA
Description: EMSA; negligible effect; EMSA: 10 mM Tris-HCl pH 7.8, 50 mM KCl, 1 mM EDTA, 1 mM DTT, 5% glycerol, hemoglobin, poly(dI-dC), 20 C, ~1 nM DNA; ITC: 50 mM phosphate pH 7, 150 mM NaCl, 25 C. Conditions: protein: recombinant; chain copies: 2; label: 5'-32P (EMSA); none (ITC); blunt.

The target of another data set is T3, CprB S33A (Streptomyces coelicolor A3(2), UniProt Q7AKF2 1-215, S33A).
T3 sequence: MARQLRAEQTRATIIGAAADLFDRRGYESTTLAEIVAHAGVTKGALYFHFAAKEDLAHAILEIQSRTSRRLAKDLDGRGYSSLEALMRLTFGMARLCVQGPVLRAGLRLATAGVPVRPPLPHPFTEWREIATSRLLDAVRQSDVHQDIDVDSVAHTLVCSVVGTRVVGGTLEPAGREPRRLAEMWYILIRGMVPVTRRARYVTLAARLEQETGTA
The data set is described as above. Conditions: protein: recombinant; chain copies: 2; label: 5'-32P (EMSA); none (ITC); blunt.

Data set [4] has as its target T1, CprB. Description: EMSA; range given for scbR, kasOA, kasOB together; EMSA: 10 mM Tris-HCl pH 7.8, 50 mM KCl, 1 mM EDTA, 1 mM DTT, 5% glycerol, hemoglobin, poly(dI-dC), 20 C, ~1 nM DNA; ITC: 50 mM phosphate pH 7, 150 mM NaCl, 25 C. Conditions: protein: recombinant; chain copies: 4; label: 5'-32P; blunt.
Data set [5] concerns the molecule itself. Description: crystal structure; CprB (6 mg/ml) co-crystallised with annealed 22-mer CS DNA, 1:1.2 (dimer of CprB:CS), hanging drop, 22°C, 0.2 M KCl, 0.02 M MgCl2, 0.05 M Tris-HCl pH 7.5, 10% PEG 4000; 3.25 Å.
Data set [6] has as its target T1, CprB. Briefly: ITC; n = 0.52 CS per CprB dimer, 25 C; EMSA: 10 mM Tris-HCl pH 7.8, 50 mM KCl, 1 mM EDTA, 1 mM DTT, 5% glycerol, hemoglobin, poly(dI-dC), 20 C, ~1 nM DNA; ITC: 50 mM phosphate pH 7, 150 mM NaCl, 25 C. Conditions: protein: recombinant; chain copies: 4; label: 5'-32P (EMSA); none (ITC, crystal); blunt.
The target in data set [7] is T1, CprB. Description: EMSA; similar trend to OPB; EMSA: 10 mM Tris-HCl pH 7.8, 50 mM KCl, 1 mM EDTA, 1 mM DTT, 5% glycerol, hemoglobin, poly(dI-dC), 20 C, ~1 nM DNA; ITC: 50 mM phosphate pH 7, 150 mM NaCl, 25 C. Conditions: protein: recombinant; chain copies: 4; label: 5'-32P; blunt.

B1: cprB1 59-mer (-58 to 0 of cprB-ATG) (dsDNA)
DNA 1: GCCGGGGGTAAAGGCAGGCGGCACGGTCTGTTGAGTTCCAGCCCGGGAGAATCCAGCCG
DNA 2: CGGCTGGATTCTCCCGGGCTGGAACTCAACAGACCGTGCCGCCTGCCTTTACCCCCGGC
In the case of B1, in the data set with CprB [1] (label: 5'-32P), the Kd is ~400 nM.

B2: QacR(OS) 28-mer (dsDNA)
DNA 1: CTTATAGACCGATCGATCGGTCTATAAG
DNA 2: CTTATAGACCGATCGATCGGTCTATAAG
On to B2, for which the Kd with CprB [2] is ~1500 nM.

B3: OPB 27-mer (-47 to -21 of cprB-ATG) (dsDNA)
DNA 1: AGGCAGGCGGCACGGTCTGTTGAGTTC
DNA 2: GAACTCAACAGACCGTGCCGCCTGCCT
Turning to B3, the Kd was 330 nM with CprB [3] and ~274 nM with CprB [1] (label: 5'-32P (EMSA), none (ITC)). Besides, the binding result in the data set with CprB K43A and in the data set with CprB S33A was “binds” throughout.

B4: kasOB (dsDNA)
DNA 1: CAAAACAGACTTGTTAGCTGTTT
DNA 2: AAACAGCTAACAAGTCTGTTTTG
Consider B4, for which, in the data set with CprB [4], the Kd was ~1060 nM.

B5: CprB (coelicolor pigment regulator protein B) from S. coelicolor A3(2) (natural protein, UniProt O66122 1-215, looked up)
chain: MARQLRAEQTRATIIGAAADLFDRRGYESTTLSEIVAHAGVTKGALYFHFAAKEDLAHAILEIQSRTSRRLAKDLDGRGYSSLEALMRLTFGMARLCVQGPVLRAGLRLATAGVPVRPPLPHPFTEWREIATSRLLDAVRQSDVHQDIDVDSVAHTLVCSVVGTRVVGGTLEPAGREPRRLAEMWYILIRGMVPVTRRARYVTLAARLEQETGTA
modifications: intermonomer disulfide linkage between cysteine residues at position 159
notes: CprB, TetR family gamma-butyrolactone receptor, Streptomyces coelicolor A3(2); the cprB gene encodes a 215 amino acid protein, expressed from pET26b(+); Crystallised with the 22-mer consensus DNA (CS); two homodimers in each asymmetric unit; No tag is mentioned; purification was by cation exchange; also called native CprB; source: E. coli BL21(DE3)pLysS, purified (SP Sepharose)
In the case of B5, the “stoichiometry N” value in data set [5] turned out to be 2.

B6: TetR(OS) 15-mer (dsDNA)
DNA 1: TCTATCATTGATAGG
DNA 2: CCTATCAATGATAGA
Consider B6, for which, in the data set with CprB [1] (label: 5'-32P), the binding result was “no binding”.

B7: kasOA (dsDNA)
DNA 1: ACAAACCGGTGTGCTGGTTTGTAAAGTCGTGG
DNA 2: CCACGACTTTACAAACCAGCACACCGGTTTGT
Regarding B7, in the data set with CprB [4], the equilibrium dissociation constant (Kd) is ~1060 nM.

B8: CS 22-mer (dsDNA)
DNA 1: ACATACGGGACGCCCCGTTTAT
DNA 2: ATAAACGGGGCGTCCCGTATGT
On to B8, for which the dissociation constant (Kd) with CprB [6] was 200 nM; in the data set with CprB [1] (label: 5'-32P (EMSA), none (ITC, crystal)), ~374 nM.

B9: cprA upstream 25-mer (-44 to -20 of cprA-ATG) (dsDNA)
DNA 1: AACAGGCACACGGTCTGTTGGTTCT
DNA 2: AGAACCAACAGACCGTGTGCCTGTT
With B9, the binding result with CprB [7] is given as “binds”.

B10: scbR (dsDNA)
DNA 1: GGAACCGGCAATGCGGTTTGTTCGATC
DNA 2: GATCGAACAAACCGCATTGCCGGTTCC
On to B10, for which the equilibrium dissociation constant (Kd) in the data set with CprB [4] was ~1060 nM.

As usually defined, the Kd is the constant that tells how readily two partners part at equilibrium. Broadly, the stoichiometry N is a count of units in the complex or per binding partner.
